# Data as given in US7662583B2, “Bioreactor containing cells expressing glycosyltransferase nucleic acids isolatable from Arabidopsis” (The University of York, priority 2003, dated 2010).
# B1: UGT76E1: Arabidopsis recombinant glycosyltransferase (protein, UniProt Q9LTH3 1-453, looked up)
# UDP-glycosyltransferase 76E1: MEELGVKRRIVLVPVPAQGHVTPIMQLGKALYSKGFSITVVLTQYNRVSSSKDFSDFHFLTIPGSLTESDLKNLGPFKFLFKLNQICEASFKQCIGQLLQEQGNDIACVVYDEYMYFSQAAVKEFQLPSVLFSTTSATAFVCRSVLSRVNAESFLLDMKDPKVSDKEFPGLHPLRYKDLPTSAFGPLESILKVYSETVNIRTASAVIINSTSCLESSSLAWLQKQLQVPVYPIGPLHIAASAPSSLLEEDRSCLEWLNKQKIGSVIYISLGSLALMETKDMLEMAWGLRNSNQPFLWVIRPGSIPGSEWTESLPEEFSRLVSERGYIVKWAPQIEVLRHPAVGGFWSHCGWNSTLESIGEGVPMICRPFTGDQKVNARYLERVWRIGVQLEGELDKGTVERAVERLIMDEEGAEMRKRVINLKEKLQASVKSRGSSFSSLDNFVNSLKMMNFM
# B2: UGT71C2: Arabidopsis recombinant glycosyltransferase (protein, UniProt O82382 1-474, looked up)
# UDP-glycosyltransferase 71C2: MAKQQEAELIFIPFPIPGHILATIELAKRLISHQPSRIHTITILHWSLPFLPQSDTIAFLKSLIETESRIRLITLPDVQNPPPMELFVKASESYILEYVKKMVPLVRNALSTLLSSRDESDSVHVAGLVLDFFCVPLIDVGNEFNLPSYIFLTCSASFLGMMKYLLERNRETKPELNRSSDEETISVPGFVNSVPVKVLPPGLFTTESYEAWVEMAERFPEAKGILVNSFESLERNAFDYFDRRPDNYPPVYPIGPILCSNDRPNLDLSERDRILKWLDDQPESSVVFLCFGSLKSLAASQIKEIAQALELVGIRFLWSIRTDPKEYASPNEILPDGFMNRVMGLGLVCGWAPQVEILAHKAIGGFVSHCGWNSILESLRFGVPIATWPMYAEQQLNAFTIVKELGLALEMRLDYVSEYGEIVKADEIAGAVRSLMDGEDVPRRKLKEIAEAGKEAVMDGGSSFVAVKRFIDGL
# B3: UGT71E8: Arabidopsis recombinant glycosyltransferase as printed in Table 1A; probably UGT71B8 of FIG. 1 (protein, UniProt Q9LSY4 1-480, looked up)
# UDP-glycosyltransferase 71B8: MNKFALVFVPFPILGHLKSTAEMAKLLVEQETRLSISIIILPLLSGDDVSASAYISALSAASNDRLHYEVISDGDQPTVGLHVDNHIPMVKRTVAKLVDDYSRRPDSPRLAGLVVDMFCISVIDVANEVSVPCYLFYTSNVGILALGLHIQMLFDKKEYSVSETDFEDSEVVLDVPSLTCPYPVKCLPYGLATKEWLPMYLNQGRRFREMKGILVNTFAELEPYALESLHSSGDTPRAYPVGPLLHLENHVDGSKDEKGSDILRWLDEQPPKSVVFLCFGSIGGFNEEQAREMAIALERSGHRFLWSLRRASRDIDKELPGEFKNLEEILPEGFFDRTKDKGKVIGWAPQVAVLAKPAIGGFVTHCGWNSILESLWFGVPIAPWPLYAEQKFNAFVMVEELGLAVKIRKYWRGDQLVGTATVIVTAEEIERGIRCLMEQDSDVRNRVKEMSKKCHMALKDGGSSQSALKLFIQDVTKYIA
# Test: UGT enzyme reaction with quercetin (recombinant UGTs, HPLC)
# Type: biochemical, Arabidopsis
# Conditions: quercetin glucosylated at 3-OH; 0.5 mM quercetin, 5 mM UDP-glucose, 30° C.
# Method: The assay mix (200 μl) contained 2 μg of recombinant protein, 100 mM Tris-HCl, pH 7.0, 5 mM UDP-glucose 1.4 mM 2-mercaptoethanol, and 0.5 mM of quercetin. The reaction was carried out at 30° C. for 1 h, and was quick-frozen and stored at −20° C. prior to the reverse-phase HPLC analysis
# Reverse-phase HPLC (SpectraSYSTEM HPLC systems and UV6000LP Photodiode Array Detector, ThermoQuest) analysis was carried using a Columbus 5μ C18 column (250×4.60 mm, PHENOMENEX). Quercetin glucosides were separated from the aglycone by a linear gradient of 10-75% acetonitrile in H2O (all solution contained 0.1% trifluoroacetic acid) at 1 ml/mm over 20 mm and monitored at 370 nm. Cytokinin glucosides were separated from their aglycone by a liner gradient of 10-100% methanol in H2O (for N6-isopentenyladenine (iP), N6-benzyladenine and kinetin) or 10-60% methanol in H2O (for trans-zeatin and dihydrozeatin) at 1 ml/min over 20 mm. All solution contained 0.25% acetic acid and 0.04% triethylamine, trifluoroacetic acid. The separation was monitored at 206 nm and 252 nm. The identity of the products was confirmed by comparison with authentic gluco sides.
# The activity of Arabidopsis recombinant UGTs towards quercetin was determined using the platform developed previously^15.
row,Molecule,Specific activity (nkat/mg protein) 3-O-glc [nkat/mg protein]
1,B1,0.02
2,B2,0.16
3,B3,0.31

# Same assay, conditions: quercetin glucosylated at 3′-OH; 0.5 mM quercetin, 5 mM UDP-glucose, 30° C.
row,Molecule,Specific activity (nkat/mg protein) 3′-O-glc
1,B1,— (Activity lower than 0.02 nkat/mg protein has been considered as trace activity and is not shown in the Table.)
2,B2,0.03 nkat/mg protein
3,B3,— (Activity lower than 0.02 nkat/mg protein has been considered as trace activity and is not shown in the Table.)

# Same assay, conditions: quercetin glucosylated at 4′-OH; 0.5 mM quercetin, 5 mM UDP-glucose, 30° C.
row,Molecule,Specific activity (nkat/mg protein) 4′-O-glc
1,B1,— (Activity lower than 0.02 nkat/mg protein has been considered as trace activity and is not shown in the Table.)
2,B2,— (Activity lower than 0.02 nkat/mg protein has been considered as trace activity and is not shown in the Table.)
3,B3,0.25 nkat/mg protein

# Same assay, conditions: quercetin glucosylated at 7-OH; 0.5 mM quercetin, 5 mM UDP-glucose, 30° C.
row,Molecule,Specific activity (nkat/mg protein) 7-O-glc
1,B1,0.08 nkat/mg protein
2,B2,0.24 nkat/mg protein
3,B3,— (Activity lower than 0.02 nkat/mg protein has been considered as trace activity and is not shown in the Table.)
